In test [1] the target is T1, CD3e on Jurkat PD-1 NFAT reporter T cells or on T cells of human PBMCs (human, UniProt P07766 23-207). The test can be described thus: cell-based or functional assay.
The target in test [2] is T2, recombinant human IL-23R (custom-made by Trenzyme) (human, UniProt Q5VWK5 24-355).
T2 sequence (looked up): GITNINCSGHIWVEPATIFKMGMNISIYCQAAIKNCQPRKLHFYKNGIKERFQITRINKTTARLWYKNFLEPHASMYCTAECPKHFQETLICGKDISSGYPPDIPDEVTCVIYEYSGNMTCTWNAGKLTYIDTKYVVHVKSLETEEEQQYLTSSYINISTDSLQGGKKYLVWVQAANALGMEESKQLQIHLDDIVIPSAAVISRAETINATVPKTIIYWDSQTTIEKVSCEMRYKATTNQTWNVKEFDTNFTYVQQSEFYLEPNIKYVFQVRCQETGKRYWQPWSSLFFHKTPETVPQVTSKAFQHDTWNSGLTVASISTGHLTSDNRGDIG
The test can be described thus: SPR, immobilised IL-23R. On the technique in general: Surface plasmon resonance follows binding to a sensor surface in real time, without labels.

Test [3] has as its target T3, recombinant human Her2 ECD (SinoBiological, cat. 10004-HCCH) (human, UniProt P04626 23-652).
T3 construct: extracellular domain; bought protein
The test can be described thus: SPR, immobilised Her2 ECD.

For test [4], the target named is T4, Fc-tagged human PD-L1 extracellular domain (SinoBiological, cat. 10084-H02H) (human, UniProt Q9NZQ7 19-238).
T4 construct: extracellular domain; also called hPD-L1; not shown: Fc tag of the bought protein
The test is described as follows: SPR, captured Fc-PD-L1 ECD.

Test [5] has as its target T5, human serum albumin (human, UniProt P02768 25-609).
T5 construct: also called HSA; human SA
The test is described as follows: SPR, immobilised HSA, pH 5.5.

Test [6] concerns the target T6, mouse serum albumin (mouse, UniProt P07724 25-608).
T6 construct: also called MSA; mouse SA
The test is described as follows: SPR, immobilised MSA, pH 5.5.

The target of test [7] is T7, recombinant human CD3E ECD (SinoBiological, cat. 10977-H08H) (human, UniProt P07766 23-126).
T7 construct: extracellular domain; bought protein; also called CD3s
T7 sequence (P07766 23-126): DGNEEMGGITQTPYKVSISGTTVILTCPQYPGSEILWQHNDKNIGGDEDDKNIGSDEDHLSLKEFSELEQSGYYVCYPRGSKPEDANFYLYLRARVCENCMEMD
The test is described as follows: SPR, immobilised CD3e ECD, two-state model.

Test [8] concerns the target T7, recombinant human CD3E ECD …. The test is described as follows: SPR, immobilised CD3e ECD, two-state model (ka1).
For test [9] the target is unchanged. The test can be described thus: SPR, immobilised CD3e ECD, two-state model (kd1).
Test [10] addresses CD137 on transgenic NF-kB Jurkat reporter cells (Homo sapiens (Human), UniProt Q07011 24-255). The test can be described thus: cell-based or functional assay.
For test [11], the target named is T8, human PD-L1 expressed on cells (CHO-PD-L1, HCC1954, HCC827) (human, UniProt Q9NZQ7 19-290).
T8 construct: whole, on cells; also called hPD-L1; PD-L1 expressing cells
The test can be described thus: flow cytometry with human SA, inhibition of PD-1 binding to HCC827 cells. A general note: In flow cytometry, cells or beads pass a laser one at a time.

In test [12] the target is T8, human PD-L1 expressed on cells …. The test is described as follows: flow cytometry with human SA, inhibition of PD-1 binding to HCC1954 cells.
Test [13] concerns the target T1, CD3e on Jurkat PD-1 NFAT reporter T …. The test is described as follows: cell-based or functional assay. The source holds these as a separate data set.
The target in test [14] is T4, Fc-tagged human PD-L1 extracellular …. The test is described as follows: SPR, captured Fc-PD-L1 ECD, kinetic.
Test [15] addresses T8, human PD-L1 expressed on cells …. The test can be described thus: flow cytometry, inhibition of biotinylated PD-1 binding to HCC827 cells.
The target is the same in test [16]. The test can be described thus: flow cytometry, inhibition of biotinylated PD-1 binding to HCC1954 cells.

As a reminder, the Kd is the concentration at which binding is half-saturated. The term koff denotes a measure of how fast the partners let go of each other. In general, kon refers to a measure of how fast the partners come together. What is called IC50 is the concentration that gives 50% inhibition.

T6 sequence (P07724 25-608 limits assumed): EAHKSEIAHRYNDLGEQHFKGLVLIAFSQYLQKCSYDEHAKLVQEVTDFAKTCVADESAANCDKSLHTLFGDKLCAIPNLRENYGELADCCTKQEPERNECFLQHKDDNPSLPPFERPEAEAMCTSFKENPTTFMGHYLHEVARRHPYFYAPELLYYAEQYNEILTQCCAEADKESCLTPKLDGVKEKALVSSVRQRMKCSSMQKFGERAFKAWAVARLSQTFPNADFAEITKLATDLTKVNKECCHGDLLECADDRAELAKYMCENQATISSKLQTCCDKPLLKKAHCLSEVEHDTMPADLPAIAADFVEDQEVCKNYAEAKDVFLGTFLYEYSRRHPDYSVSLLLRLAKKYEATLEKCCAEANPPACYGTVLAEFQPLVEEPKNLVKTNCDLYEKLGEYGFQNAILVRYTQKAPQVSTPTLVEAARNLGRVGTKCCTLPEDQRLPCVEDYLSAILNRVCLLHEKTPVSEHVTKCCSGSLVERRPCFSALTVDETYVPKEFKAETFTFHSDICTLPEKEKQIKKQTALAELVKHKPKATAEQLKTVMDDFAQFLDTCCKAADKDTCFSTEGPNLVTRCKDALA

B1: PRO1558 (multispecific antibody)
chain 1: DIQMTQSPSSLSASVGDRVTITCQASENIYSFLAWYQQKPGKAPKLLIYSASKLAAGVPSRFSGSGSGTDFTLTISSLQPEDFATYYCQQTNRYSNPDIYNVFGTGTKVTVLGGGGGSGGGGSGGGGSGGGGSEVQLVESGGGLVQPGGSLRLSCAASGIDFNSNYYMCWVRQAPGKGLEWIGCIYVGSHVNTYYANWAKGRFTISRDNSKNTVYLQMNSLRAEDTAVYYCATSGSSVLYFKFWGQGTLVTVSSGGGGSGGGGSDVVMTQSPSSLSASVGDRVTITCQASQIISSRSAWYQQKPGQPPKLLIYQASKLASGVPSRFSGSGSGTDFTLTISSLQPEDFATYYCQCTYIDSNFGAFGCGTKLTVLGGGSGGSDIQMTQSPSSLSASVGDRVTITCQSSQSVFSNNYLAWFQQKPGQSPKRLIYSASTLASGVPSRFSGSGSGTDFTLTISSLQPEDFATYYCLGSYACSSADCYVFGTGTKVTVLG
chain 2: not shown
As to B1, in test [1], the “IC50, NFAT reporter, HCC1954 cells” value is 2.71 nM. Also, the “rel. max. activation vs PRO1497, NFAT reporter, HCC1954 cells” value in [1] is 53%. Also, the Kd came out at 0.868 nM in test [2]; 0.3 nM in test [3]; 0.501 nM in [5]; 11.5 nM in test [6]; 7.95 nM in test [7]. Also, the koff was 0.000493 s⁻¹ in test [2]; 6.07e-05 s⁻¹ in test [3]; 0.000123 s⁻¹ in [5]; 0.0011 s⁻¹ in [6]; 0.00496 s⁻¹ in test [9]. The kon in [2] is 568000 M⁻¹ s⁻¹; in test [3], 202000 M⁻¹ s⁻¹; in test [5] it was 245000 M⁻¹ s⁻¹; in test [6], 95800 M⁻¹ s⁻¹; in [8], 315000 M⁻¹ s⁻¹. Also, the binding result in [4] was “no binding”. Besides, the KD1 in test [7] was determined as 15.7 nM. The kd2 in [7] is 0.00335 s⁻¹.

B2: PRO1780 (multispecific antibody)
chain 1: not shown
chain 2: DIQMTQSPSSLSASVGDRVTITCQASQSISNRLAWYQQKPGKAPKLLIYSASTLASGVPSRFSGSGSGTDFTLTISSLQPEDFATYYCQSTYYGNDGNAFGCGTKVTVLGGGGGSGGGGSGGGGSGGGGSEVQLVESGGGLVQPGGSLRLSCAASGFSFSANYYPCWVRQAPGKCLEWIGCIYGGSSDITYDANWTKGRFTISRDNSKNTVYLQMNSLRAEDTAVYYCARSAWYSGWGGDLWGQGTLVTVSSGGGGSGGGGSQVQLQESGPGLVKPSETLSLTCKVSGFSFSSGYDMCWIRQPPGKGLEWIGCVVAGSVDITYYASWAKGRVTISVDSSKNQFSLKLSSVTAADTAVYYCARKDAYSDAFNLWGQGTLVTVSSGGGSGGGSEVQLVESGGGLVQPGGSLRLSCAASGFSFSSSYWICWVRQAPGKCLEWVGCVFTGDGTTYYASWAKGRFTISRDNSKNTVYLQMNSLRAEDTATYFCARPVSVYYYGMDLWGQGTLVTVSS
In the case of B2, the “EC50, NFkB reporter gene assay, HCC1954 cells” value in [10] came out at 0.603 nM. Moreover, the IC50 in [11] was 32.6 µg/mL; in test [12] it was 0.695 µg/mL.

B3: PRO1778 (multispecific antibody)
chain 1: not shown
chain 2: DVVMTQSPSSLSASVGDRVTITCQASQIISSRSAWYQQKPGQPPKLLIYQASKLASGVPSRFSGSGSGTDFTLTISSLQPEDFATYYCQCTYIDSNFGAFGGGTKLTVLGGGGGSGGGGSGGGGSGGGGSEVQLVESGGGLVQPGGSLRLSCAASGFSFSSSYWICWVRQAPGKGLEWVGCVFTGDGTTYYASWAKGRFTISRDNSKNTVYLQMNSLRAEDTATYFCARPVSVYYYGMDLWGQGTLVTVSSGGGGSGGGGSQVQLQESGPGLVKPSETLSLTCKVSGFSFSSGYDMCWIRQPPGKGLEWIGCVVAGSVDITYYASWAKGRVTISVDSSKNQFSLKLSSVTAADTAVYYCARKDAYSDAFNLWGQGTLVTVSSGGGSGGGSEVQLVESGGGLVQPGGSLRLSCAASGFSFSANYYPCWVRQAPGKCLEWIGCIYGGSSDITYDANWTKGRFTISRDNSKNTVYLQMNSLRAEDTAVYYCARSAWYSGWGGDLWGQGTLVTVSS
As to B3, the “EC50, NFkB reporter gene assay, HCC1954 cells” value in test [10] was 0.661 nM. The IC50 in [11] amounted to 6.72 µg/mL; in [12], 1.42 µg/mL.

B4: PRO1498 (multispecific antibody)
chain 1: DIQMTQSPSSLSASVGDRVTITCQASENIYSFLAWYQQKPGKAPKLLIYSASKLAAGVPSRFSGSGSGTDFTLTISSLQPEDFATYYCQQTNRYSNPDIYNVFGTGTKVTVLGTVAAPSVFIFPPSDEQLKSGTASVVCLLNNFYPREAKVQWKVDNALQSGNSQESVTEQDSKDSTYSLSSTLTLSKADYEKHKVYACEVTHQGLSSPVTKSFNRGECGGGGSGGGGSDIQMTQSPSSLSASVGDRVTITCQSSQSVFSNNYLAWFQQKPGQSPKRLIYSASTLASGVPSRFSGSGSGTDFTLTISSLQPEDFATYYCLGSYACSSADCYVFGTGTKVTVLGGGGGSGGGGSGGGGSGGGGSEVQLVESGGGLVQPGGSLRLSCAASGFSLSSYDMSWVRQAPGKGLAWIGASYASGPTYYASWAKGRFTISRDNSKNTVYLQMNSLRAEDTATYFCARGGWTGTSHSNIWGQGTLVTVSS
chain 2: EVQLVESGGGLVQPGGSLRLSCAASGIDFNSNYYMCWVRQAPGKGLEWIGCIYVGSHVNTYYANWAKGRFTISRDNSKNTVYLQMNSLRAEDTAVYYCATSGSSVLYFKFWGQGTLVTVSSASTKGPSVFPLAPSSKSTSGGTAALGCLVKDYFPEPVTVSWNSGALTSGVHTFPAVLQSSGLYSLSSVVTVPSSSLGTQTYICNVNHKPSNTKVDKKVEPKSCGGGGSGGGGSDIQMTQSPSSLSASVGDRVTITCQASQSINDYLAWYQQKPGKAPKLLIYKASTLASGVPSRFSGSGSGTDFTLTISSLQPEDFATYYCQAAYIITDIDNVFGTGTKVTVLGGGGGSGGGGSGGGGSGGGGSQVQLQESGPGLVKPSETLSLTCKVSGFSFSSGYDMCWIRQPPGKGLEWIGCVVAGSVDITYYASWAKGRVTISVDSSKNQFSLKLSSVTAADTAVYYCARKDAYSDAFNLWGQGTLVTVSS
With B4, the “fold weaker activation than PRO1497, NFAT reporter, HCC1954 cells” value in [13] was 475 fold. Also, in test [1], the “IC50, NFAT reporter, HCC1954 cells” value was found to be 172 nM and the “rel. max. activation vs PRO1497, NFAT reporter, HCC1954 cells” value stood at 71%. Besides, in test [2], the Kd came to 0.563 nM, the koff is 0.000278 s⁻¹ and the kon is 495000 M⁻¹ s⁻¹. The binding result in [3] is recorded as “no binding (tested: 90 nM highest concentration)”. For the same molecule, in test [14], the Kd is 332 nM, the koff amounted to 0.000379 s⁻¹ and the kon came to 1140 M⁻¹ s⁻¹. Besides, in test [7], the KD1 is 29.6 nM, the Kd worked out at 19.5 nM and the kd2 is 0.00198 s⁻¹. Further, the kon in test [8] was 197000 M⁻¹ s⁻¹. In addition, in test [9], the koff is 0.00584 s⁻¹. In test [15], this molecule gave an IC50 of 8.54 µg/mL. Moreover, the IC50 in [16] is 7.05 µg/mL.

The values above are taken from US20220411536A1 (NUMAB THERAPEUTICS, published 2022).
